Laboratory results published in the nanobody polyreactivity screen of Harvey et al. (2022).

Assay: yeast display, Sf9 membrane polyspecificity reagent, FACS + sequencing; frameworks hold sequencing errors
Summary of the method: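 Polyreactivity labels are assigned by the sorting gate from which each nanobody was recovered. The gates were low and high (top ~1%), set on anti-HA fluorescence for expression and streptavidin fluorescence for reagent binding. Before sorting, galactose-induced (36–48 hours) yeast display cells were stained for 1 hour at 4 °C with 10% biotinylated, detergent-solubilized Sf9 membrane reagent.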

Sequence	polyreactivity (PSR sort gate)
QVQLVDSGGGLVQAGGSLRLSCPASGYTIVYNAMGCYRQGPGKEREFVAAITWSGTSTRYADSVKGRFTISRDKAKNTVYLQMNSLKPDDTAVYYCSARFPLVRYNYWGQGTQVTVSS	high polyreactivity
QVHLVESGGVLVQAGGSLRLSCAASGRIFYRYAMGWYRQAPGKERELVAAITHRGGSTYYADSVKGRFTISRDNAKNTVYLQMNSLKPEDTAVYYCAGRITEAVADYVGHKPYDYWGQGTQVTVSS	low polyreactivity
QVQLVESGGGLVQAGGRLRLRCAASGHIFYYYTLGWYRQAPGKERELVAGITIGGSTNYADSVKGRFTISRDNAKNTVYLQMNSLKPEDTAVYYCNVVKYVYIYSYWEYYYWGQGTQVTVSS	low polyreactivity
QVQLVESGGGLVQAGGSLRLICAASGITFRRYGMGWYRQAPGKERELVATITSSVGSRTYYADSVKGRLTISRDNAKNTVYLQMNSLKPEDTAVYYCAADHRVYDYEYWGQGTQVTVSS	low polyreactivity
QVQLVESGGGLVQAGGSLRLSCAASGRIFARYAMGWYRQAPGKERELVAAISFRGGSTYYADSVKGRFTISRDNAKNTVYLQMNSLKPEDTAVYYCAARFGGWDRGLDYWGQGTQVTVSS	high polyreactivity
QVQLVESGGGLVQAGGSLRLSCAASGRIFYRNAMGWYRQAPGKERELVAAISSGSGTYYADSVKGRFTISRDNAKNTVYLQMNSLKPEDTAVYYCAARARSRDYYWGQGTQVTVSS	high polyreactivity
QVQLVESGGGLVQAGGSLRLSCAASGSIFEYNAMGWYRQAPGKERELVAAISWSSGTTYYADSVKGRFTISRDNAKNTVYLQMNSLKPEDTAVYYCAAVRWYVPGDVGYWGQGTQVTVSS	low polyreactivity
QVQLVESGGGLVQAGGSLRLSCAASGSTFYDNAMGWYRQAPGKERELVASIRSGGSTKYADSVKGRFTISRDNAKNTVYLQMNSLKPEDTAVYYCATAFIVPFPGSDYWGQGTQVTVSS	low polyreactivity
QVQLEESAGGLVQAGGSLSLICAASGTIVSYAMGWYRQAPGKQRELVAAISRSGGSTYYADSVKGRFTIARDNEKNTVYLQMNSLKPEDTAVYYCAARWRYLTLYAGFNYWGQGTQVTVSS	high polyreactivity
QVQLVESGGGLVQAGGSLRLSCAASGFTIWRNDMGWYRQAPGKERELVAVISTAGRTYYADSVKGRFTISRDNAKITVYLQMNSLKPEDTAVYYCAKRSYSKDQPRYGYWGQGTQVTVSS	low polyreactivity
QVQLVESGGGLVQAGGSLRLSCAASGITFNGYAMGWYRQAPGKERELVAAISSSGGRTRYADSVKGRFTISRDNAKNTVYLQMNSLKPEDTAVYYCNARGYGQSNYWGQGTQVTVSS	high polyreactivity
QVQLVESGGGLVQAGGSLRLSCAASGRIFYLNDMGWYRQAPGKERELVATITSTGGSTYYADSVKGRFTISRDNAKNTVYLQMNSLKPEDTAVYYCAAGGWRAYSYTARYDYWGQGTQVTVSS	low polyreactivity
QVQLVESVGGLVQAGGSLRLSCAASGFIFPYYVMGWYRQAPGKERELVAAITSVGITYYADSVKGRFTISRDNAKNTVYLQMNSLKPEDTAVYYCAADYKYFYDWGSFVEDEYWGQGTQVTVSS	high polyreactivity
QVQLVESGGGLVQAGGRLRLSCAASGSIFYRNAMGWYRQAPGKERELVAAIRYSGDNTYYADSVKGRFTISRDNAKNTVYLQMNSLKPEDTAVYYCAADFPDYEYWGQGTQVTVSS	high polyreactivity
QVQLVESGGGLVQARGSLRLSCAASGRTFFNNAMGWYRQAPGKERELVAGISVTTGSTYYADSVKGRFTISRDNAKNTVYLQMNSLKPEDTAVYYCAARRKQYYAAYRYYYWGQGTQVTVSS	high polyreactivity
QVQLVESGGGLVQAGGSLRLSCAASGSTFRGYAMGWYRQAPGKERELVAAISWSAGSTYYADSVKGRFTISRDNAKNTVYLQMNRLKPEDTAVYYCAKASVALRYYSYSLGRDYWGQGTQVTVSS	low polyreactivity

Sequence	polyreactivity (PSR sort gate)
QGQLGESGGGLVQAGGSLRLSSPASGIIFWDYAMAWSRQSPGNEREFVAAINTSGGTTTYADSVKGRFTISRDNAKNTVYLQMNSLKPEDTAVYYCAADPWGYYSYAYYYWGQGTQVTVSS	low polyreactivity
QVQLVESGGGLVQAGGSLRLSCAASGYTFKSYALGWYRQAPGKERELVASISNDGSTNYADSVKGRFTISRDNAKNTVYLQMNSLKPEDTAVYYCNADFYDAPSQWARTGFDYWGQGTQVTVSS	low polyreactivity
QVQLVESGGGLVQAGGSLRLSCAASGRIFARYAMGWYRQAPGKERELVAAITTSGDSTYYADSVKGRFTISRDNAKNTVYLQMNSLKPEDTAVYYCAAERRYGRYYRLVRLLGQGTQVTVSS	high polyreactivity
QVQLVESGGGLVQAGGSLRLSCAASGSTFISYAMGWYRQAPGKEREMVAAISWDGGSTYYADSVKGRFTISRDNAKNTVYLQMNSLKPEDTAVYYCNAEYDGAAGRYEYWGPGTQVTVSS	low polyreactivity
QVQLVESGGGLVQAGGSLRLSCAASGRTFRYNDMGWYRQAPGKERELVAAITYTADRTYYADSVKGRFTISRDNAKNTVYLQMNSLKPEDTAVYYCNAAYGRRVTFRPYYWGQGTQVTVSS	high polyreactivity
QVQLVESGGGLVQAGGSLRLSCAASGSTFGIYAMGWYRQAPGKERELVAAIRKNGGSTYYADSVKGRFTISRDNAKNTVYLQMNSLKPEDTAVYYCNADYWIYPSYDYWGQGTQVTVSS	low polyreactivity
QVQLVESGGGLVQAGGSLRLSCAASGITFTDYAMGWYRQAPGKERELVAAITGSGTSTYYADSVKGRFTISRDNAKNTVYLQMNSLKPEDTAVYYCAARTRGTAYNYWGQGTQVTVSS	high polyreactivity
QVQLVESGGGLVQAGGSLRLICAASGSTFDSYAMGWYRQAPGKERELVAAISRSGGRTYYADSVKGRFTISRDNAKNTVYLQMNSLKPEDTAGYYCAAPVKVGHSLSGGDYWGQGTQVTVSS	high polyreactivity
QVQLVESGGGLVQAGGSLRLSCAASGLIFVSNAMGWYRQAPGKERELVAAISWSGSRTYYADSVKGRFTISRENAKNTVYLQMNSLKPEDTAVYYCNAVRRGLPVVGAYDYWGQGTQVTVSS	high polyreactivity
QVQLVESGGGLVQAGGSLRLSCAASGFTFDYYDMGWYRQAPGKERELVAGITYSGGRTRYADSVKGRFTISRDNAKNTVYLQMNSLKPEDTAVYYCAARPGYPYRMNYWGQGTQVTVSS	low polyreactivity
QVQLVESGGGLVQAGGSLRLSCAASGSTFYTNAMGWYRQAPGKEREFVAAISGRGSNTYYADSVKGRFTISRDNAKNTVYLQMNSLKPEDTAVYYCAADFRSEHAEDYWGQGTQVTVSS	high polyreactivity
QVQLVESGGGLVQAGGSLRLSCAASGFTFGGYAMGWYRQAPGKERELVAAIRSSGDTTYYADSVKGRFTISRDNAKNTVYLQMNSLKPEDTAVYYCAAYSHHQFSRSEYYYWGQGTQVTVSS	low polyreactivity
QVQLVESGGGLVQAGGSLRLSCAASGSTFAGNAMGWYRQAPGKERELVAAIDSSTGSTYYSDSVKGRFTISRDNAKNTVYLQMNSLKPEDTSVYYCNKTSVLVKLDYWGQGTQVTVSS	low polyreactivity
QVQLVESGGGLDQAGGSLRLSCAASGFIFYRYVMGWYRQAPGKERELVATISSGGSTNYADSVKGRFTISRDNAKNTVYLQMNSLKPEDTAVYYCAKRRYFYNYYEYDYWGQGTQVTVSS	high polyreactivity
QGQLVDSGGGLVQAGGSLRLSCAASGFTVTRYAMGWYRTATGKERELVAAISWNSGSTYYADSVKGRFTISRDNAKNTVYLQMNSLKPEDTAVYYCAARDDQGYCYWGQGTQVTVSS	high polyreactivity
QVQLVESGGGLVQAGGSLRLSCAASGRTFTVNPMGWYRQAPGKERELVAAITSGGTTKYADSVKGRFTISRDNAKNTVYLQMNSLKPEDTAVYYCAARVYFPVQYPWFYFEYGYWGQGTQVTVSS	high polyreactivity
